Test results from the supplement of paper PMC10065799, “High-throughput profiling of sequence recognition by tyrosine kinases and SH2 domains using bacterial peptide display” (eLife, 2023).

Legend:
Fyn = Fyn (UniProt P06241); experiment: phosphorylation enrichment, bacterial display (enrichment ratio); higher = better substrate or ligand; peptides without Tyr show the background
EPHB1 = EPHB1 (UniProt P54762); experiment: as above
Hck = Hck (UniProt P08631); experiment: as above
AncSZ = experiment: as above
MERTK = MERTK (UniProt Q12866); experiment: as above
c-Abl (mouse) = experiment: as above
FGFR1 = FGFR1 (UniProt P11362); experiment: as above
Fes = Fes (UniProt P07332); experiment: as above
c-Src = experiment: as above
FGFR3 = FGFR3 (UniProt P22607); experiment: as above
Jak2 = Jak2 (UniProt O60674); experiment: as above
Fer (mouse) = experiment: as above
EPHB2 = EPHB2 (UniProt P29323); experiment: as above
c-Src SH2 = experiment: SH2 binding enrichment of the phosphorylated peptide, bacterial display (enrichment ratio); higher = better substrate or ligand; peptides without Tyr show the background
SHP2-C SH2 = experiment: as above
Grb2 SH2 = Grb2 SH2 (UniProt P62993); experiment: as above
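Throughout, for SH2 binding enrichment of the phosphorylated peptide, bacterial display: peptide library displayed on the E. coli surface as eCPX fusions, selected cells deep-sequenced, score is each peptide's frequency after selection divided by its frequency in the input.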
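Throughout, for phosphorylation enrichment, bacterial display: 11-residue human phosphosite peptides and single-mutation variants displayed on the E. coli surface, counted by deep sequencing, each peptide's frequency after selection divided by its frequency in the unselected input library; frequency after pTyr selection over input frequency; kinase dosed for 20-30% of maximal phosphorylation in three min.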

Sequence of Jak2 (O60674 whole entry, looked up): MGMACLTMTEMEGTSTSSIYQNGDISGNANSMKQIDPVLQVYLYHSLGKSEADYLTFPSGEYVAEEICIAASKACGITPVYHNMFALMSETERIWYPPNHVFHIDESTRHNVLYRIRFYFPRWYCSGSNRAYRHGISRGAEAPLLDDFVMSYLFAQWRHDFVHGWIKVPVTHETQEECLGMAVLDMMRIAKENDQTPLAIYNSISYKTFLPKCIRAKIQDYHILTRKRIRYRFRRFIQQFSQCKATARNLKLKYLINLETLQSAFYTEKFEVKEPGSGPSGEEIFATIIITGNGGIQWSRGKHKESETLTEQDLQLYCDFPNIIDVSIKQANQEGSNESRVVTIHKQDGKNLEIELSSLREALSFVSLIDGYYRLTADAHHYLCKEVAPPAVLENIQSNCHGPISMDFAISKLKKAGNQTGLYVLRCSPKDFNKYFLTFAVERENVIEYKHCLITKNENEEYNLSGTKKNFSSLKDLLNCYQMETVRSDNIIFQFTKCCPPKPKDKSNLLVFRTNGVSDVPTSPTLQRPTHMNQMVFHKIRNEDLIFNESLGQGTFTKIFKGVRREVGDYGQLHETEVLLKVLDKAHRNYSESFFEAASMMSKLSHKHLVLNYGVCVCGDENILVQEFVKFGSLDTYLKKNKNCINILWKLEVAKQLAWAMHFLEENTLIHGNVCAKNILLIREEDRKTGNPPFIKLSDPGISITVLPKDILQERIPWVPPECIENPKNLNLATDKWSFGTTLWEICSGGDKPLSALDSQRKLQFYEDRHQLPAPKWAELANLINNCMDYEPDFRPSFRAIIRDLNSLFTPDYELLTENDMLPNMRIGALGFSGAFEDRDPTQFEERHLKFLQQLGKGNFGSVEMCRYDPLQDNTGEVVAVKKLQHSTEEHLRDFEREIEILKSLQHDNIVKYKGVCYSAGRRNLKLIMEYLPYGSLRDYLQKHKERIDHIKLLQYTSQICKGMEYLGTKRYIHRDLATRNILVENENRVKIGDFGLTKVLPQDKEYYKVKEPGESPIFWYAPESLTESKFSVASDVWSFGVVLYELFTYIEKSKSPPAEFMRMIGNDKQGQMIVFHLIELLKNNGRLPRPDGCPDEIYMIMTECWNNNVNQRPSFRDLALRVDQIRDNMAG
Sequence of FGFR3 (P22607 whole entry, looked up): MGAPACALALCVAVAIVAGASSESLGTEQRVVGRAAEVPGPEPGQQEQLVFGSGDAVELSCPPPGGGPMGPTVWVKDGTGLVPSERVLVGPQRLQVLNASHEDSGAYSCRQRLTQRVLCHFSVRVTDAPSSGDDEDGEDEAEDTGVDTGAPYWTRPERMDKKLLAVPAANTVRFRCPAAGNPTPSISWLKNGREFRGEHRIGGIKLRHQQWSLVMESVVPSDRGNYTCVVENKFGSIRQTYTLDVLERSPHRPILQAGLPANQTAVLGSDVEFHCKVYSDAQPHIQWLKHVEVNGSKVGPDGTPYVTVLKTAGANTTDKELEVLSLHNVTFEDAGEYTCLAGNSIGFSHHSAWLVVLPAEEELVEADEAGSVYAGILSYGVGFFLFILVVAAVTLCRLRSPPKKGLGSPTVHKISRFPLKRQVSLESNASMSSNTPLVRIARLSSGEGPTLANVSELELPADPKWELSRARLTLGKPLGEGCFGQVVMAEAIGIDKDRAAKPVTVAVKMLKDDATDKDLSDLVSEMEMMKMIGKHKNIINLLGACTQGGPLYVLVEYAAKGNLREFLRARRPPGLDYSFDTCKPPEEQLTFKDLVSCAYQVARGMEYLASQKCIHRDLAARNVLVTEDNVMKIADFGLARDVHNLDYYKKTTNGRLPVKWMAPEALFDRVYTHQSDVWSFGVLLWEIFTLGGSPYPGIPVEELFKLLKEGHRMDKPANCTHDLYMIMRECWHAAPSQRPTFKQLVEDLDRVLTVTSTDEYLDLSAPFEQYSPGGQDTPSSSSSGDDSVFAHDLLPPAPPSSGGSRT
Sequence of EPHB2 (P29323 whole entry, looked up): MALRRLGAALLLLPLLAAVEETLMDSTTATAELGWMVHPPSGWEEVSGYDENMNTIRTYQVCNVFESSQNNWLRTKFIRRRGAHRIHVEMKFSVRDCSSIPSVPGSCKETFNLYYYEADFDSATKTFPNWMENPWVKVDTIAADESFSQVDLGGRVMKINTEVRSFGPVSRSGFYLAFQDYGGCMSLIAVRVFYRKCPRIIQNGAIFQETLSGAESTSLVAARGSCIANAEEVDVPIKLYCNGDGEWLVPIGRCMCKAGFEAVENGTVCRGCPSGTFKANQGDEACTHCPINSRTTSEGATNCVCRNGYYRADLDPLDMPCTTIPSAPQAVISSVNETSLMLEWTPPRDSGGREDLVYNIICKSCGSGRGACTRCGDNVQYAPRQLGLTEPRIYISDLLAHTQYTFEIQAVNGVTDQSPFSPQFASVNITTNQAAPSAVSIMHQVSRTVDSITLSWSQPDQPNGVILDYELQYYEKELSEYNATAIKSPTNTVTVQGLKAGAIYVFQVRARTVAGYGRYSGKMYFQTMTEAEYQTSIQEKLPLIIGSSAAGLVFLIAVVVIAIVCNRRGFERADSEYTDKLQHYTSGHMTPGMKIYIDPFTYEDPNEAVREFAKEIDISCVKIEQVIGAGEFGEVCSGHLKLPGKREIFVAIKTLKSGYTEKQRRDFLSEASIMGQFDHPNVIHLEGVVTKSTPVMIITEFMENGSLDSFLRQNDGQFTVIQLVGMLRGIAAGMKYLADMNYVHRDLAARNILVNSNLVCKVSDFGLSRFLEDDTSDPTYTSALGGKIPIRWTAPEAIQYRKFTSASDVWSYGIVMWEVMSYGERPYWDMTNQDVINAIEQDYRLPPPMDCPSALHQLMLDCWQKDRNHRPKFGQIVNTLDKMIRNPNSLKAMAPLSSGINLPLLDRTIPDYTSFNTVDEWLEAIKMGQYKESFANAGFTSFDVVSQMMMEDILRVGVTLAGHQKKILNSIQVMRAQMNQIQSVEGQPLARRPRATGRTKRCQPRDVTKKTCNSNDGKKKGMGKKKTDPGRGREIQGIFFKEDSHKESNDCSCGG
Sequence of Fes (P07332 whole entry, looked up): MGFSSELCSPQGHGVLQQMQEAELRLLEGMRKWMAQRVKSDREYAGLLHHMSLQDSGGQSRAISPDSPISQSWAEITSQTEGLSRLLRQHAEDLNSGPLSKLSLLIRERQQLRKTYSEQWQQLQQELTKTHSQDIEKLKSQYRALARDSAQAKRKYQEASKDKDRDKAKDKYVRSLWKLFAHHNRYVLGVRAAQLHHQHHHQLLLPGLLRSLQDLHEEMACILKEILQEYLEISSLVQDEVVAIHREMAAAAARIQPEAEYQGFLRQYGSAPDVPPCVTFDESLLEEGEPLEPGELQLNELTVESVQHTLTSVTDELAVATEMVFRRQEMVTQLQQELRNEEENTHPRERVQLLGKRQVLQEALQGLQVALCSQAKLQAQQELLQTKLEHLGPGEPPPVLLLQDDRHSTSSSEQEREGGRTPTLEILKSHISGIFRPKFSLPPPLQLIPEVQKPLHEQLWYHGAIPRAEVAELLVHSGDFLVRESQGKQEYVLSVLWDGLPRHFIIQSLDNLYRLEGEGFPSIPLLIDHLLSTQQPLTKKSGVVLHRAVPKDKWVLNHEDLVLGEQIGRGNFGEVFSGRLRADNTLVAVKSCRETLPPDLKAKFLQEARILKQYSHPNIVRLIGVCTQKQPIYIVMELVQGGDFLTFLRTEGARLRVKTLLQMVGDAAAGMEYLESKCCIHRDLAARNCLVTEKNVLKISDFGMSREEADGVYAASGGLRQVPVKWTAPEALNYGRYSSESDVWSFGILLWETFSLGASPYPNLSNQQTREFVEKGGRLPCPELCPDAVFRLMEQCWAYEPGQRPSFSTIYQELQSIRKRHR
Sequence of Fyn (P06241 whole entry, looked up): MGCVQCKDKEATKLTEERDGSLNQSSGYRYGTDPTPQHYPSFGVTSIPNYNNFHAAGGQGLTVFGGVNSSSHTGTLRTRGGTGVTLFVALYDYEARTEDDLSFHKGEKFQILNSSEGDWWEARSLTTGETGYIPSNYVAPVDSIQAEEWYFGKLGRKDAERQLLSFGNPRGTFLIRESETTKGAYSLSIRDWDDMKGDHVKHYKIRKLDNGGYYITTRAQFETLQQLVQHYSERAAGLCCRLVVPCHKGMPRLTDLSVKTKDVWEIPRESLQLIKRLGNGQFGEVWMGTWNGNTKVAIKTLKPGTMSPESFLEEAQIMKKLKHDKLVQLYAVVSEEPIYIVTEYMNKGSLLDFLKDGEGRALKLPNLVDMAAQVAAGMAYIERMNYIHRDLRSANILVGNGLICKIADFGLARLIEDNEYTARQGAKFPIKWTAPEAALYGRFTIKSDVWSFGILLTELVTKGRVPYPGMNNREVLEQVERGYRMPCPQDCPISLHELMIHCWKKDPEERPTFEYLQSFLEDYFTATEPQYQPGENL
Sequence of Hck (P08631 whole entry, looked up): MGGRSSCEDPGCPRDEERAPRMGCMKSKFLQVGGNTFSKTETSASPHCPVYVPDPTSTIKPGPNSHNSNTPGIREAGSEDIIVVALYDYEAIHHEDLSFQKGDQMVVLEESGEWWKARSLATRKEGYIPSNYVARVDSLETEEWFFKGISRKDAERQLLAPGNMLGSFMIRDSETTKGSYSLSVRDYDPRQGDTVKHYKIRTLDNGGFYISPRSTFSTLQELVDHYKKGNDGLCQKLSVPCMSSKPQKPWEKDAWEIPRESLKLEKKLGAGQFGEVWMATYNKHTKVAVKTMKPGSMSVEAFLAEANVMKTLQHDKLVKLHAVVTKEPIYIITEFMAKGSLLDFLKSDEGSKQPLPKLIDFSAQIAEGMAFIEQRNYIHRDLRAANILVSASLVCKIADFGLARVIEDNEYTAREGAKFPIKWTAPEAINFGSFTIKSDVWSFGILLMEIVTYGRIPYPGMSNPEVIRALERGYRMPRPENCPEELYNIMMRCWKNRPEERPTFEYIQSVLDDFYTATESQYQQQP

Sequence	SH2 binding enrichment (c-Src SH2)	SH2 binding enrichment (SHP2-C SH2)	SH2 binding enrichment (Grb2 SH2)	phosphorylation enrichment (Fyn)	phosphorylation enrichment (EPHB1)	phosphorylation enrichment (Hck)	phosphorylation enrichment (AncSZ)	phosphorylation enrichment (MERTK)	phosphorylation enrichment (c-Abl (mouse))	phosphorylation enrichment (FGFR1)	phosphorylation enrichment (Fes)	phosphorylation enrichment (c-Src)	phosphorylation enrichment (FGFR3)	phosphorylation enrichment (Jak2)	phosphorylation enrichment (Fer (mouse))	phosphorylation enrichment (EPHB2)
HPYNSYTYPRL [PAK5_Y316_S312P]	7.32	0.677	0.813	0.968	0.731	0.984	1.2	2.57	0.374	0.998	0.875	1.3	0.962	0.429	0.674	0.531
IIWDSYTTNKV [GNB1_Y85]	0.543	0.77	0.76	0.46	0.498	0.482	1.2	0.356	0.687	0.489	1.21	0.395	0.729	0.863	0.665	0.598
RAFRRYLLKQK [SCN2A_Y1919_YF]	0.454	0.44	0.829	0.696	0.535	0.63	0.708	0.971	0.531	0.617	0.703	0.671	0.865	0.712	0.675	0.61
GNYSGYDDAWD [POLR1C_Y36]	5.84	0.595	0.833	0.597	6.73	0.578	1.62	0.637	0.964	0.723	1.32	0.586	0.931	1.29	0.742	5.87
IEDNEYTAREG [HCK_Y411]	0.539	0.666	0.803	0.576	0.637	0.588	1.56	0.519	1.08	0.722	1.33	0.67	0.759	1.33	0.515	0.491
RAKLFYQEVPA [METTL11B_Y76]	0.992	0.789	0.651	0.716	2.91	1.67	1.95	6.6	0.513	2.88	1.02	0.385	2.39	0.547	1.64	1.9
RGEEPYTKKAL [TTC21B_Y160_K157E]	0.4	0.634	0.542	0.481	0.413	0.719	0.715	0.491	0.487	0.771	0.991	0.383	0.714	0.473	0.552	0.476
PLDGEYLTLQI [TP53_Y327_F328L]	0.504	0.555	0.522	1.08	1.46	0.927	2.75	0.764	2.16	1.64	2.31	1.14	2.15	2.48	1.08	1.23
LTERDYSFVTT [ACTG2_Y199_G198D]	0.678	1.37	0.792	1.93	2.38	1.62	2.56	1.26	0.888	7.67	1.6	0.977	4.74	1.27	2.82	3.51
AAFNKYDQERF [CDC73_Y293_R292K_YF]	0.44	0.776	0.867	0.485	0.401	0.375	0.692	0.396	0.494	0.412	0.785	0.414	0.531	0.599	0.428	0.483
RFLFFYSFLLK [PTEN_Y178_V175L_YF]	0.808	1.29	1.58	0.79	0.984	0.631	2.12	0.782	1.51	0.885	1.78	1.41	0.754	1.53	0.765	0.574
NAPNSYGRRPT [CDKN2A_Y44_I49T]	0.567	0.615	0.599	0.402	0.452	0.424	0.784	0.593	0.79	0.343	0.717	0.528	0.499	1.11	0.38	0.281
LSIQCYLRASD [HMGCS2_Y262_L266S]	0.443	0.795	0.732	2.73	3.37	2.46	3.81	1.2	1.87	1.99	4.92	0.998	5.23	2.95	2.44	3.31
VRHRRYKHTHE [CTCF_Y343]	0.364	0.714	0.665	0.613	0.55	0.631	0.759	0.684	0.816	0.743	0.654	0.788	0.603	0.643	0.584	0.622
ARLDEYIAIAK [RCOR3_Y46_K42R]	0.505	0.702	0.664	0.391	0.442	0.447	0.649	0.598	0.516	0.446	0.621	0.458	0.562	0.683	0.428	0.51
VRSTEYPCAGL	0.615	1.08	1.03	0.397	0.554	0.338	0.586	0.362	0.611	0.447	0.798	0.471	0.497	0.713	0.292	0.483
IEELTYVIKQD [STX5_Y137_I138V]	0.354	0.602	0.654	0.494	0.643	0.528	1.23	0.363	0.705	0.515	1.26	0.691	0.954	1.18	0.54	0.659
VGNAAYQAGSL [STK36_Y1181_P1185S]	0.356	0.705	0.668	0.401	0.437	0.37	0.565	0.312	0.448	0.552	0.598	0.361	0.446	0.466	0.436	0.37
EEALHYLTRVE [SET_Y119]	0.532	1.16	0.758	0.466	0.73	0.586	1.02	0.469	0.748	0.47	1.13	0.462	0.724	1	0.492	0.536
NFRTTCVNANE [KCNH2_Y475_Y475C]	0.387	0.536	0.723	0.53	0.53	0.483	0.974	0.423	0.808	0.528	0.955	0.428	0.619	0.979	0.464	0.605
SLNEEYAKNKT [MSH2_Y563_T564A]	0.482	0.759	0.949	0.413	0.394	0.362	0.765	0.43	0.674	0.472	0.877	0.45	0.538	0.791	0.318	0.579

Now from value to sequence, other results behind:

SH2 binding enrichment (c-Src SH2)	SH2 binding enrichment (SHP2-C SH2)	SH2 binding enrichment (Grb2 SH2)	Sequence	phosphorylation enrichment (Fyn)	phosphorylation enrichment (EPHB1)	phosphorylation enrichment (Hck)	phosphorylation enrichment (AncSZ)	phosphorylation enrichment (MERTK)	phosphorylation enrichment (c-Abl (mouse))	phosphorylation enrichment (FGFR1)	phosphorylation enrichment (Fes)	phosphorylation enrichment (c-Src)	phosphorylation enrichment (FGFR3)	phosphorylation enrichment (Jak2)	phosphorylation enrichment (Fer (mouse))	phosphorylation enrichment (EPHB2)
0.608	0.517	0.848	IEPVIDVVQRR [ANOS1_Y217_Y217D]	0.39	0.379	0.459	1.02	0.36	0.624	0.393	0.98	0.258	0.592	0.638	0.354	0.566
1.25	6.22	1.37	RPPFTYATLIR [FOXP3_Y342]	2.14	1.64	2.58	1.14	1.01	0.686	0.913	1.01	3.29	0.813	1.29	0.55	0.737
0.543	0.679	0.817	ASRKFYAMKIL [AKT3_Y174_G171R_YF]	0.45	0.459	0.417	0.725	0.441	0.441	0.578	0.617	0.464	0.518	0.7	0.362	0.428
1.22	1.13	1.11	QNTGDYCDLYG [PTPN11_Y62_Y63C]	1.49	9.03	2.08	2.75	0.633	1.34	5.87	1.08	1.84	4.13	1.35	1.39	7.83
0.565	0.963	0.868	HFGCVYRGTLL [MET_Y1093_H1094R]	0.862	1.04	0.607	1.44	0.573	1.28	0.884	1.66	1.97	1.06	1.77	0.702	0.87
0.447	0.574	0.728	SPYAVYRFFTF [RPGRIP1_Y826]	1.79	0.714	1.21	1.08	0.797	1.67	0.784	1.33	2.4	0.783	1.12	0.875	0.555
1.06	0.705	0.896	SARSAYQEAID [SFN_Y151_M155I]	0.434	0.461	0.523	1.02	0.471	0.83	0.573	0.994	0.516	0.685	0.875	0.395	0.405
0.523	0.765	0.84	MCTVDYLLRLQ [RYR1_Y3921_I3916M]	0.546	0.597	0.529	1.07	0.516	0.866	0.526	1.35	0.487	0.684	1.19	0.504	0.62
0.813	0.697	1.15	YDAHNYHPLPV [OAT_Y55_G51D]	0.864	0.923	2.01	0.871	3.58	1.05	12.7	0.685	0.622	7.27	0.848	6.52	1.62
0.631	0.586	0.834	TYQYKYPEGSS [TGM4_Y440_E437Q]	0.567	0.548	0.455	0.85	0.429	0.691	0.425	0.905	0.494	0.63	0.743	0.509	0.56
1.35	1.42	1.54	ALRHYYKLNII [ETV6_Y402]	0.506	0.579	0.527	0.968	0.522	0.839	1.3	1.28	0.427	1.36	1.3	0.693	0.533
0.704	1	1.01	AFLLLCFNDTH [BMP15_Y235_Y235C]	0.563	0.724	0.561	1.42	0.484	1.01	0.501	1.44	0.413	0.918	1.63	0.663	0.696
